Test results reported in patent publication US20060110789.

T1: diketide-ACP4(4) (DEBS ACP4 with its natural C-terminal linker, loaded with diketide), Q03132
T1 chain: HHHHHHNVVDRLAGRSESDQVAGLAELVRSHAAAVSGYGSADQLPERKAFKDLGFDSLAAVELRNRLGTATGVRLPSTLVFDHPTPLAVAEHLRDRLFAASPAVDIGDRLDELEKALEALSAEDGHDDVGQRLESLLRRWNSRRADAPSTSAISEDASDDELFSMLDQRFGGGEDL

T2: diketide-ACP2(4) (DEBS ACP2 with the C-terminal linker of module 4, loaded with diketide), Q03131
T2 chain: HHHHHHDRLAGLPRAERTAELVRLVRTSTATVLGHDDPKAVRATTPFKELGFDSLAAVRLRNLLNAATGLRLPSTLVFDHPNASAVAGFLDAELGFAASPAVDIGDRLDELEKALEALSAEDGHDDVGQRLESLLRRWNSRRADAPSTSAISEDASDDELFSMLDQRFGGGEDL

T3: diketide-ACP2(2) (DEBS ACP2 with its natural C-terminal linker, loaded with diketide), Q03131
T3 chain: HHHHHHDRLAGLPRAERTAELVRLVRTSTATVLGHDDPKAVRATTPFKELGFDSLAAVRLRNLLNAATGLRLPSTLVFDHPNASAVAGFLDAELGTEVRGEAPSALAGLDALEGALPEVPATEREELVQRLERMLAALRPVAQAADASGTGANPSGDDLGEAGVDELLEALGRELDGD


Tests used:
[1] = target: T1, diketide-ACP4(4) (DEBS ACP4 with its …)
[2] = target: T2, diketide-ACP2(4) (DEBS ACP2 with the …)
[3] = target: T3, diketide-ACP2(2) (DEBS ACP2 with its …)

Protein	kcat/KM, fold decrease against the matched reaction (FIG. 27 C) [1]	triketide lactone formation at 20 µM substrate (FIG. 27 C) [1]	KM of transfer and elongation, fold increase against the natural linker pair (diketide-ACP2(2) with (3)M3+TE) [2]	kcat/KM [2]	triketide lactone formation at 20 µM substrate (FIG. 27 D) [1]	kcat/KM, fold decrease against the matched reaction (FIG. 27 B) [2]	triketide lactone formation at 20 µM substrate (FIG. 27 B) [2]	k60 µM (overall rate of product formation at 60 µM substrate) [3] [min-]	kcat/KM [3] [M⁻¹ s⁻¹]	triketide lactone formation at 20 µM substrate (FIG. 27 A) [3]
(5)M3+TE (module 3 of DEBS with the N-terminal linker of module 5, fused to thioesterase) (protein) MSGDNGMTEEKLRRYLKRTVTELDSVTARLREVEHRAGIAIVSMACRLPGGVNTPQRLWELLREGGETLSGFPTDRGWDLARLHHPDPDNPGTSYVDKGGFLDDAAGFDAEFFGVSPREAAAMDPQQRLLLETSWELVENAGIDPHSLRGTATGVFLGVAKFGYGEDTAAAEDVEGYSVTGVAPAVASGRISYTMGLEGPSISVDTACSSSLVALHLAVESLRKGESSMAVVGGAAVMATPGVFVDFSRQRALAADGRSKAFGAGADGFGFSEGVTLVLLERLSEARRNGHEVLAVVRGSALNQDGASNGLSAPSGPAQRRVIRQALESCGLEPGDVDAVEAHGTGTALGDPIEANALLDTYGRDRDADRPLWLGSVKSNIGHTQAAAGVTGLLKVVLALRNGELPATLHVEEPTPHVDWSSGGVALLAGNQPWRRGERTRRARVSAFGISGTNAHVIVEEAPEREHRETTAHDGRPVPLVVSARTTAALRAQAAQIAELLERPDADLAGVGLGLATTRARHEHRAAVVASTREEAVRGLREIAAGAATADAVVEGVTEVDGRNVVFLFPGQGSQWAGMGAELLSSSPVFAGKIRACDESMAPMQDWKVSDVLRQAPGAPGLDRVDVVQPVLFAVMVSLAELWRSYGVEPAAVVGHSQGEIAAAHVAGALTLEDAAKLVVGRSRLMRSLSGEGGMAAVALGEAAVRERLRPWQDRLSVAAVNGPRSVVVSGEPGALRAFSEDCAAEGIRVRDIDVDYASHSPQIERVREELLETTGDIAPRPARVTFHSTVESRSMDGTELDARYWYRNLRETVRFADAVTRLAESGYDAFIEVSPHPVVVQAVEEAVEEADGAEDAVVVGSLHRDGGDLSAFLRSMATAHVSGVDIRWDVALPGAAPFALPTYPFQRKRYWLQPAAPAAASDELAYRVSWTPIEKPESGNLDGDWLVVTPLISPEWTEMLCEAINANGGRALRCEVDTSASRTEMAQAVAQAGTGFRGVLSLLSSDESACRPGVPAGAVGLLTLVQALGDAGVDAPVWCLTQGAVRTPADDDLARPAQTTAHGFAQVAGLELPGRWGGVVDLPESVDDAALRLLVAVLRGGGRAEDHLAVRDGRLHGRRVVRASLPQSGSRSWTPHGTVLVTGAASPVGDQLVRWLADRGAERLVLAGACPGDDLLAAVEEAGASAVVCAQDAAALREALGDEPVTALVHAGTLTNFGSISEVAPEEFAETIAAKTALLAVLDEVLGDRAVEREVYCSSVAGIWGGAGMAAYAAGSAYLDALAEHHRARGRSCTSVAWTPWALPGGAVDDGYLRERGLRSLSADRAMRTWERVLAAGPVSVAVADVDWPVLSEGFAATRPTALFAELAGRGGQAEAEPDSGPTGEPAQRLAGLSPDEQQENLLELVANAVAEVLGHESAAEINVRRAFSELGLDSLNAMALRKRLSASTGLRLPASLVFDHPTVTALAQHLRICCAGTAAISGPHEFTRLAGALRGIAPVRAVPQPGYEEGEPLPSSMAAVAAVQADAVIRTQGDKPFVVAGHSAGALMAYALATELLDRGHPPRGVVLIDVYPPGHQDAMNAWLEELTATLFDRETVRMDDTRLTALGAYDRLTGQWRPRETGLPTLLVSAGEPMGPWPDDSWKPTWPFEHDTVAVPGDHFTMVQEHADAIARHIDAWHHHHHH	fell approximately 3-5 fold and 80-200 fold, respectively	transfer of diketide from the donor ACP to the acceptor module occurred at 20 µM substrate concentration	increases the KM for the ACP2-module 3 reaction by approximately 7-fold	the kcat/KM value decreases to 56 min^-1mM^-1	–	–	–	–	–	–
M3+TE (module 3 of DEBS with its own N-terminal linker, fused to thioesterase) (protein) VTDSEKVAEYLRRATLDLRAARQRIRELESIAIVSMACRLPGGVNTPQRLWELLREGGETLSGFPTDRGWDLARLHHPDPDNPGTSYVDKGGFLDDAAGFDAEFFGVSPREAAAMDPQQRLLLETSWELVENAGIDPHSLRGTATGVFLGVAKFGYGEDTAAAEDVEGYSVTGVAPAVASGRISYTMGLEGPSISVDTACSSSLVALHLAVESLRKGESSMAVVGGAAVMATPGVFVDFSRQRALAADGRSKAFGAGADGFGFSEGVTLVLLERLSEARRNGHEVLAVVRGSALNQDGASNGLSAPSGPAQRRVIRQALESCGLEPGDVDAVEAHGTGTALGDPIEANALLDTYGRDRDADRPLWLGSVKSNIGHTQAAAGVTGLLKVVLALRNGELPATLHVEEPTPHVDWSSGGVALLAGNQPWRRGERTRRARVSAFGISGTNAHVIVEEAPEREHRETTAHDGRPVPLVVSARTTAALRAQAAQIAELLERPDADLAGVGLGLATTRARHEHRAAVVASTREEAVRGLREIAAGAATADAVVEGVTEVDGRNVVFLFPGQGSQWAGMGAELLSSSPVFAGKIRACDESMAPMQDWKVSDVLRQAPGAPGLDRVDVVQPVLFAVMVSLAELWRSYGVEPAAVVGHSQGEIAAAHVAGALTLEDAAKLVVGRSRLMRSLSGEGGMAAVALGEAAVRERLRPWQDRLSVAAVNGPRSVVVSGEPGALRAFSEDCAAEGIRVRDIDVDYASHSPQIERVREELLETTGDIAPRPARVTFHSTVESRSMDGTELDARYWYRNLRETVRFADAVTRLAESGYDAFIEVSPHPVVVQAVEEAVEEADGAEDAVVVGSLHRDGGDLSAFLRSMATAHVSGVDIRWDVALPGAAPFALPTYPFQRKRYWLQPAAPAAASDELAYRVSWTPIEKPESGNLDGDWLVVTPLISPEWTEMLCEAINANGGRALRCEVDTSASRTEMAQAVAQAGTGFRGVLSLLSSDESACRPGVPAGAVGLLTLVQALGDAGVDAPVWCLTQGAVRTPADDDLARPAQTTAHGFAQVAGLELPGRWGGVVDLPESVDDAALRLLVAVLRGGGRAEDHLAVRDGRLHGRRVVRASLPQSGSRSWTPHGTVLVTGAASPVGDQLVRWLADRGAERLVLAGACPGDDLLAAVEEAGASAVVCAQDAAALREALGDEPVTALVHAGTLTNFGSISEVAPEEFAETIAAKTALLAVLDEVLGDRAVEREVYCSSVAGIWGGAGMAAYAAGSAYLDALAEHHRARGRSCTSVAWTPWALPGGAVDDGYLRERGLRSLSADRAMRTWERVLAAGPVSVAVADVDWPVLSEGFAATRPTALFAELAGRGGQAEAEPDSGPTGEPAQRLAGLSPDEQQENLLELVANAVAEVLGHESAAEINVRRAFSELGLDSLNAMALRKRLSASTGLRLPASLVFDHPTVTALAQHLRICCAGTAAISGPHEFTRLAGALRGIAPVRAVPQPGYEEGEPLPSSMAAVAAVQADAVIRTQGDKPFVVAGHSAGALMAYALATELLDRGHPPRGVVLIDVYPPGHQDAMNAWLEELTATLFDRETVRMDDTRLTALGAYDRLTGQWRPRETGLPTLLVSAGEPMGPWPDDSWKPTWPFEHDTVAVPGDHFTMVQEHADAIARHIDAWHHHHHH	–	–	–	–	no product was detected at the same substrate concentrations	fell approximately 3-5 fold and 80-200 fold, respectively	transfer of diketide from the donor ACP to the acceptor module occurred at 20 µM substrate concentration	1.4	6500	transfer of diketide from the donor ACP to the acceptor module occurred at 20 µM substrate concentration
